Molecular target: microtubule polymers (alpha/beta tubulin)
Test: co-sedimentation

fold reduction in binding affinity against wild-type Smc5: 3 fold
B1: Smc5-2KE hinge domain (residues 215 to 885, K624E K631E) (domain or fragment)
chain: LRELQGNEQSLQKDLDFKKAKIVHLRQESDKLRKSVESLRDFQNKKGEIELHSQLLPYVKVKDHKEKLNIYKEEYERAKANLRAILKDKKPFANTKKTLENQVEELTEKCSLKTDEFLKAKEKINEIFEKLNTIRDEVIKKKNQNEYYRGRTKKLQATIISTKEDFLRSQEILAQTHLPEKSVFEDIDIKRKEIINKEGEIRDLISEIDAKANAINHEMRSIQRQAESKTKSLTTTDKIGILNQDQDLKEVRDAVLMVREHPEMKDKILEPPIMTVSAINAQFAAYLAQCVDYNTSKALTVVDSDSYKLFANPILDKFKVNLRELSSADTTPPVPAETVRDLGFEGYLSDFITGDKRVMKMLCQTSKIHTIPVSRRELTPAQIKKLITPRPNGKILFKRIIHGNRLVDIEQSAYGSEQVFPTDVSIKQTNFYQGSIMSNEQKIRIENEIINLKNEYNDRKSTLDALSNQKSGYRHELSELASKNDDINREAHQLNEIRKKYTMRKSTIETLREKLDQLKREARKDVSQKIKDIDDQIQQLLLKQRHLLSKMASSMKSLKNCQKELISTQILQFEAQNMDVSMNDVIGFFNEREADLKSQYEDKKKFVKEMRDTPEFQSWMREIRSYDQDTKEKLNKVAEKYEEEGNFNLSFVQDVLDKLESEIAMVNHDES
